The record followed here is patent publication US20250382390A1 (Chugai, published 2025).

In experiment [1] the target is activated blood coagulation factor IX (FIXa) (UniProt P00740 47-461, limits assumed). Put plainly: cell-based or functional assay.
The target in experiment [2] is blood coagulation factor X (FX) (UniProt P00742 41-488, limits assumed). Kind of experiment: cell-based or functional assay.
blood coagulation factor X (FX), sequence (P00742 41-488 limits assumed): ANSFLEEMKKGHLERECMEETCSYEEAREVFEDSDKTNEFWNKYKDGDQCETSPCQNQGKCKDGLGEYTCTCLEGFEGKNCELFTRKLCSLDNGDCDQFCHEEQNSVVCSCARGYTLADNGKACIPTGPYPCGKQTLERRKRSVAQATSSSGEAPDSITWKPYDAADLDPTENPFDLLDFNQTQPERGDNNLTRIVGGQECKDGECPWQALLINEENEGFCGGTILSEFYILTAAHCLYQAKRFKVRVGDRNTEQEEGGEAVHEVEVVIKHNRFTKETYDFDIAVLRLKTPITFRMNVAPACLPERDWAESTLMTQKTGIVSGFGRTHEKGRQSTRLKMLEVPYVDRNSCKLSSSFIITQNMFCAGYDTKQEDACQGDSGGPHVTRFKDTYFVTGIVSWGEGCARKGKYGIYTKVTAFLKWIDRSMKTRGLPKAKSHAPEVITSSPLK

activated blood coagulation factor IX (FIXa), sequence (P00740 47-461 limits assumed): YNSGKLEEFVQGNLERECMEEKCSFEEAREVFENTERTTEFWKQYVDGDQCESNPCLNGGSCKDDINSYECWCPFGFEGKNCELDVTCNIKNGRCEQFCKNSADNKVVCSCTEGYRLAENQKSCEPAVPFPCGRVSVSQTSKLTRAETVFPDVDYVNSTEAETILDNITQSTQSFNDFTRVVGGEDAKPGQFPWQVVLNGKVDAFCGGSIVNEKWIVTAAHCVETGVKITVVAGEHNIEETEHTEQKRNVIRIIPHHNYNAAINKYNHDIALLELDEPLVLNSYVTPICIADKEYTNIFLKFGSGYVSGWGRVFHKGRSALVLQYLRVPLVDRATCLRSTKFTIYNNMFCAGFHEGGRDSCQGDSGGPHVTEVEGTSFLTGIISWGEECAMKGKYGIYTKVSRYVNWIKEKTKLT

B1: Q-CDR-Clipped Variants (variants of Emicizumab) (bispecific antibody, human IgG4 S228P, kappa)
heavy 1: QVQLVESGGGLVQPGGSLRLSCAASGFTFSYYDIQWVRQAPGKGLEWVSSISPSGQSTYYRREVKGRFTISRDNSKNTLYLQMNSLRAEDTAVYYCARRTGREYGGGWYFDYWGQGTLVTVSSASTKGPSVFPLAPCSRSTSESTAALGCLVKDYFPEPVTVSWNSGALTSGVHTFPAVLQSSGLYSLSSVVTVPSSSLGTQTYTCNVDHKPSNTKVDKRVESKYGPPCPPCPAPEFLGGPSVFLFPPKPKDTLMISRTPEVTCVVVDVSQEDPEVQFNWYVDGVEVHNAKTKPREEQYNSTYRVVSVLTVLHQDWLNGKEYKCKVSNKGLPSSIEKTISKAKGQPREPQVYTLPPSQKEMTKNQVSLTCLVKGFYPSDIAVEWESNGQPENNYKTTPPVLDSDGSFFLYSKLTVDKSRWQEGNVFSCSVMHEALHNRYTQKSLSLSP
heavy 2: QVQLVQSGSELKKPGASVKVSCKASGYTFTDNNMDWVRQAPGQGLEWMGDINTRSGGSIYNEEFQDRVIMTVDKSTDTAYMELSSLRSEDTATYHCARRKSYGYYLDEWGEGTLVTVSSASTKGPSVFPLAPCSRSTSESTAALGCLVKDYFPEPVTVSWNSGALTSGVHTFPAVLQSSGLYSLSSVVTVPSSSLGTQTYTCNVDHKPSNTKVDKRVESKYGPPCPPCPAPEFLGGPSVFLFPPKPKDTLMISRTPEVTCVVVDVSQEDPEVQFNWYVDGVEVHNAKTKPREEQYNSTYRVVSVLTVLHQDWLNGKEYKCKVSNKGLPSSIEKTISKAKGQPREPQVYTLPPSQEEMTKNQVSLTCLVKGFYPSDIAVEWESNGQPENNYKTTPPVLDSDGSFFLYSKLTVDKSRWQEGNVFSCSVMHEALHNHYTQESLSLSP
light: DIQMTQSPSSLSASVGDRVTITCKASRNIERQLAWYQQKPGQAPELLIYQASRKESGVPDRFSGSRYGTDFTLTISSLQPEDIATYYCQQYSDPPLTFGGGTKVEIKRTVAAPSVFIFPPSDEQLKSGTASVVCLLNNFYPREAKVQWKVDNALQSGNSQESVTEQDSKDSTYSLSSTLTLSKADYEKHKVYACEVTHQGLSSPVTKSFNRGEC
modifications: Q chain: R at the 61st position from the N terminus (Kabat 60), or YYR at the 59th to 61st positions (Kabat 58 to 60), deleted and the chain cleaved at the deletion site; the N-terminal and C-terminal fragments are joined via a disulfide bond
Take B1: the “biological activity relative to the Emicizumab standard solution (chromogenic assay: FXa produced in the presence of FIXa, FX and phospholipid)” value in experiment [1] and in experiment [2] was 18% throughout.

B2: Protected Disulfide Isoforms (isoforms of Emicizumab) (bispecific antibody, human IgG4 S228P, kappa)
heavy 1: B1 heavy 1
heavy 2: B1 heavy 2
light: B1 light
As to B2, the “biological activity relative to the Emicizumab standard solution (chromogenic assay: FXa produced in the presence of FIXa, FX and phospholipid)” value in experiment [1] and in experiment [2] was 8% in each case.
